We go through two molecules from patent publication US20200239586A1.

In assay [1] the target is synthetic peptide hFn14 sub-domain 2 (human). Kind of assay: ELISA on biotinylated sub-domain 2 peptide, mAb at 5 ng/ml. A general note: In an ELISA, binding on a coated surface is turned into a signal by an enzyme label.
Another assay has as its target T1, human Fn14 (human) (UniProt Q9NP84).
T1 sequence: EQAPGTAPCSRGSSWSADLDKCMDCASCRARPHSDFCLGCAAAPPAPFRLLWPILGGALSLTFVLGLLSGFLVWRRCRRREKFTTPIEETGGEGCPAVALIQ
Kind of assay: cell-based or functional assay.

Assay [2] deals with T2, synthetic peptide hFn14 sub-domain 3 (human).
T2 sequence (peptide, biotin on the added C-terminal lysine): ASCRARPHSDFCLGK
In words: ELISA on biotinylated sub-domain 3 peptide, mAb at 0.2 ug/ml.

The target in assay [3] is T3, Histidine tagged hFn14 extracellular domain, bacterially expressed (human) (UniProt Q9NP84).
T3 sequence: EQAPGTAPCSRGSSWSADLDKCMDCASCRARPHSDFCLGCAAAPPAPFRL
In words: SPR (ProteOn XPR36), mAb coupled to chip, His-tagged hFn14 analyte, Langmuir 1:1 fit.

synthetic peptide hFn14 sub-domain 2 (human), sequence (peptide, as listed by the source): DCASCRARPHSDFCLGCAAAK

B1: ITEM-1 (antibody, from another filing, V domains shown)
VH: EVKLEESGGGLVQPGGSMKLSCVASGFSFSNYWMNWVRQSPEKGLEWVAEIRLKSNNYATHYAESVKGRFTISRHDSKSSVYLQMNNLRAEDTGIYYCTRAYADYFDYWGQGTTLTVSS
VL: DIVLTQSPASLVVSLGQRATISCRASQSVSTSTYSYMHWYQQKPGQPPKILIKYASNLESGVPARFSGSGSGTDFTLNIHPVEEEDTATYYCQHSWEIPYTFGGGTKLEIKR
By Kd is commonly meant the free concentration of one partner at which half of the binding sites on the other are occupied at equilibrium, for simple one-to-one binding. One may read the koff as the rate constant with which the complex falls apart. By kon is commonly meant the second-order rate constant of association. Low values mean slow association, high ones fast association. B1 came in with a % decrease in binding compared to CRCBT-06-001 and CRCBT-06-002 in assay [1] of 68%. In the assay with human Fn14 (human), the % Agonist, IL-8 secretion by A375 cells came to 21% and the % Antagonist, IL-8 secretion by A375 cells is 9%. Also, in assay [2], the % decrease in binding compared with CRCBT-06-005 is 76%. Further, in assay [3], the Kd was 4.1 nM, the koff was 0.00147 s⁻¹ and the kon was 358000 M⁻¹ s⁻¹.

B2: ITEM-4 (antibody, from another filing, V domains shown)
VH: QVQLQQSGPELVKPGASVKMSCKASGYTFTDFIIAWVKQRTGQGLEWIGEIYPGTGRTYYSEKFRGKATLTADKSSNTAYMQLSSLTSVDSAVYFCARRTIYYDYDGDYWGQGTTLTVSS
VL: DIVMTQAAFSNPVTLGTSASISCRSSKSLLHSNGITYLYWYLQKPGQSPQLLIYQMSNLASGVPDRFSSSGSGTDFTLRISRVEAEDVGVYYCAHNLELPWTFGGGTKLELK
In the assay with human Fn14 (human), B2 came in with a % Agonist, IL-8 secretion by A375 cells of 8% and a % Antagonist, IL-8 secretion by A375 cells of 97%. In addition, in assay [3], the Kd was 1.68 nM, the off-rate constant (koff) came to 0.000864 s⁻¹ and the association rate constant (kon) turned out to be 510000 M⁻¹ s⁻¹.
